The subject of one assay is R5-HIV-1Ba-L. The assay can be described thus: HIV-1 replication in infected iDCs, p24 ELISA in culture supernatant. Type of assay: cell-based. As to conditions: 1 μg/ml, 3 days. How it is done:
FIGS. 6 (a), (b) and (c). Exogenous rh-HMGB1 triggers HIV-1 and HIV-2 replication in iDC. (a) HIV-1-infected iDC were cultured alone or in the presence of aNK cells for 3 days. Rh-HMGB1 (1 μg/ml) was added in some cultures. HIV replication was measured by p24 quantification in culture supernatant (b) HIV1-infected iDC were cultured alone or in the presence of aNK cells for 3 days. Blocking anti-HMGB1 antibodies (10 μg/ml) or glycyrrhizin (10 μg/ml) were added at culture initiation. HIV replication was measured by p24 quantification in culture supernatant. The mean±sd of three independent experiments is shown. Statistical comparisons were made with the non parametric Mann-Whitney test. * p<0.05; (c) HIV-2-infected iDC were cultured alone or in the presence of aNK cells for 3 days. Rh-HMGB1 (1 μg/ml) was added in some cultures. HIV replication was measured by p24 quantification in culture supernatant.
Virus stock preparation was prepared by amplification of R5-HIV-1Ba-L on MDM from healthy donors. Viral stock was then clarified by centrifugation prior to determination of HIV1 p24 concentration. iDCs were plated in 96-well culture plates at 200,000 cells/well and incubated for 3 hours at 37° C. in a 5% CO2 atmosphere with R5-HIV-1BAL at various concentrations (0.001 to 10 ng p24/ml). Cells were harvested, washed four times with media containing 10% FCS and, when indicated, rNK or aNK cells were added at a NK:DC ratio of 1:5, unless otherwise indicated. NK-DC cocultures lasted 24 h before analysis of the maturation stage of DCs and/or quantification of viral production. In some experiments (FIG. 6), HIV-1 infected iDCs were incubated alone or with aNK cells for 3 days, in the presence of rh-HMGB1 (1 μg/ml) (R&DSystems), and in some cultures in the presence of rabbit antiHMGB1 Abs (10 μg/ml) (Abcam, Cambridge, UK) or Glycyrrhizin (10 μg/ml).
The concentration of HIV-1 in the supernatant of infected cell cultures was determined by measuring the amount of p24 protein by ELISA (Ingen, Belgium). DNA from cells was extracted using the GIAamp DNA Blood Mini Kit (Qiagen, Basel, Switzerland) and quantified HIV-1 proviral load by RT-PCR as described previously54. The frequency of HIV-1-infected cells was determined by flow cytometry to detect intracellular p24 molecule. Cells were surface stained with antibodies specific for CD40 (BD Biosciences, San Jose, Calif.) to target DC and intracellular stained with p24-specific antibodies (Coulter). Stained cells were fixed in 1% PFA, immediately acquired on a FACScalibur (Becton Dickinson) and analyzed with FlowJo software. In some experiments infected DCs were imaged, after immunofluorescence, by laser scanning confocal microscopy.
(ELISA stands for enzyme-linked immunosorbent assay.)

The subject of another assay is HIV-2. The assay can be described thus: HIV-2 replication in infected iDCs, p24 ELISA in culture supernatant. In kind it is cell-based. As to conditions: HIV-2-infected iDC, day 3 of infection. How it is done:
FIGS. 6 (a), (b) and (c). Exogenous rh-HMGB1 triggers HIV-1 and HIV-2 replication in iDC. (a) HIV-1-infected iDC were cultured alone or in the presence of aNK cells for 3 days. Rh-HMGB1 (1 μg/ml) was added in some cultures. HIV replication was measured by p24 quantification in culture supernatant (b) HIV1-infected iDC were cultured alone or in the presence of aNK cells for 3 days. Blocking anti-HMGB1 antibodies (10 μg/ml) or glycyrrhizin (10 μg/ml) were added at culture initiation. HIV replication was measured by p24 quantification in culture supernatant. The mean±sd of three independent experiments is shown. Statistical comparisons were made with the non parametric Mann-Whitney test. * p<0.05; (c) HIV-2-infected iDC were cultured alone or in the presence of aNK cells for 3 days. Rh-HMGB1 (1 μg/ml) was added in some cultures. HIV replication was measured by p24 quantification in culture supernatant. […]
2—NK-DC cocultures: cells were harvested, washed three times with RPMI containing 10% FCS and, when indicated, aNK cells were added at a NK:DC ratio of 1:5. […] NK-DC cocultures lasted 3 to 7 days before quantification of viral production in culture supernatants.
3—Quantification of HIV-2 viral production: the concentration of HIV-2 particles in the supernatants was determined with the p24 ELISA kit (Ingen, Belgium).

The test system of another assay is iDCs. The assay can be described thus: Cytokine and chemokine production by DCs (MAP/Luminex). Type of assay: cell-based, human. Particulars: iDCs 48 h with 1 or 10 μg/ml. The method, then:
FIG. 3 (a)-(e). aNK-dependent maturation of HIV-1-infected iDCs is mediated by HMGB1 and involves RAGE. (a) Left panel: iDCs were cultured for 24 h either alone or with aNK cells, in the presence of blocking anti-HMGB1 antibodies (10 μg/ml) or glycyrrhizin (10 μg/ml). The maturation status of DCs was determined by flow cytometry with CD86 and HLA-DR—specific antibodies. Right panel: same experiment, but performed with HIV-1 infected iDCs. Data represent mean±sd of at least three independent experiments, and statistical comparisons were made with the non parametric Mann-Whitney test. * p<0.05. (b) iDC (10^6 cells/ml) were cultured for 48 h with increasing concentrations (1-10 μg/ml) of rh-HMGB1. Cells were then stained with anti-CD86, -HLA-DR, -CD80, -CD83, DC-LAMP and -CD40 antibodies and analyzed by flow cytometry. (c) Influence of rh-HMGB1 on cytokine and chemokine production (determined by MAP) by DCs. iDCs (10^6 cells/ml) were incubated for 48 h in medium or in presence of rh-HMGB1 (1 or 10 μg/ml). As a positive control, iDCs were stimulated with LPS (DC0). […] (e) iDC, DC0, uninfected or HIV-1-infected iDC cocultured for 24 h with aNK cells, were incubated with rh-HMGB1 (1 μg/ml) and subsequently stained with anti-RAGE antibodies and analyzed by flow cytometry. […]

We go through one molecule from patent US10012655B2, “Method for quantitating total HMGB1 protein in biological samples” (INSTITUT PASTEUR, priority 2008, dated 2018).

B1: rh-HMGB1: recombinant human HMGB1 protein (R&D Systems) (protein, UniProt P09429 1-215, looked up)
High mobility group protein B1: MGKGDPKKPRGKMSSYAFFVQTCREEHKKKHPDASVNFSEFSKKCSERWKTMSAKEKGKFEDMAKADKARYEREMKTYIPPKGETKKKFKDPNAPKRPPSAFFLFCSEYRPKIKGEHPGLSIGDVAKKLGEMWNNTAADDKQPYEKKAAKLKEKYEKDIAAYRAKGKPDAAKKGVVKAEKSKKKKEEEEDEEDEEDEEEEEDEEDEDEEEDDDDE
For the molecule B1, in the assay with R5-HIV-1Ba-L (HIV-1-infected iDC cocultured with aNK cells), the “p24 production in culture supernatants” value is “significant stimulatory effect on p24 production”. Besides, the “production of p24 in culture supernatants” value in the assay on R5-HIV-1Ba-L (HIV-1-infected iDC cultured alone) was “enhancing dramatically the production of p24”. The “HIV-2 viral replication (p24 in supernatant)” value in the assay with HIV-2 is given as “slight increase in viral replication”. In addition, the “release of the chemokines MCP1, MIP-1α, MIP-1β and IL-8” value with iDCs was “increased release”.
